Test results reported in the supplement of paper PMC10567573.

B1: KLHL12 (parent)
chain: REESLPNLLQYVRMPLLTPRYITD

Variants of: B1
Assay: protein stability index of a GFP-peptide fusion (GPS, HEK-293T) (PSI 1-6); higher = more stable
Details: c terminus: a fixed tail appended
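Further: lentivirally expressed fusions sorted by FACS into six bins by GFP to DsRed ratio, PSI derived from sequencing read proportions per bin multiplied by bin number.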

Variant | protein stability index
Y11E | 3.9
Y11F | 2.92
Y11D | 3.96
Y11R | 3.21
Y11P | 3.56
Y11H | 2.88
Y11W | 1.96
Y11A | 2.76
Y11Q | 3.42
Y11L | 2.09
Y11S | 3.33
Y11V | 2.51
Y11C | 2.82
Y11K | 2.87
Y11M | 2.34
Y11N | 3.47
Y11I | 2.68
Y11T | 3.06
Y11G | 3.52
P15H | 2.65
P15E | 2.54
P15K | 1.57
P15D | 2.01
P15Q | 2.45

Variant | protein stability index
P15A | 1.58
P15M | 2.48
P15Y | 4.19
P15F | 2.24
P15R | 1.69
P15I | 3.9
P15L | 4.9
P15T | 2.65
P15G | 3.67
P15W | 2
P15V | 2.34
P15S | 3.06
P15N | 2.42
N7L | 2.01
N7S | 2.26
N7T | 2.1
N7W | 3.17
N7E | 2.34
N7K | 2.73
N7H | 2.44
N7M | 2.03
N7P | 3.19
N7Q | 2.65
N7C | 2.35

Variant | protein stability index
N7V | 2.07
N7R | 2.3
N7D | 2.93
N7Y | 1.71
N7G | 2.63
N7A | 2.64
N7F | 2.23
N7I | 1.9
R20C | 2.12
R20F | 1.95
R20H | 2.56
R20I | 2.68
R20E | 2.7
R20D | 3.03
R20A | 2.19
R20G | 3.29
L16P | 2.77
L16G | 2.84
L16C | 2.41
L16I | 2.45
L16K | 2.93
L16V | 3.03
L16R | 3.25
L16W | 1.6

Variant | protein stability index
L16N | 2.77
L16M | 2.46
L16S | 3.56
L16E | 3.04
L16H | 3.18
L16Y | 2.98
L16A | 2.56
L16D | 2.69
L16Q | 3.12
L16F | 2.27
L16T | 2.75
T18S | 2.27
T18G | 3.92
T18I | 2.17
T18Y | 1.95
T18K | 2.19
T18E | 2.87
T18R | 2.67
T18M | 1.81
T18C | 1.96
T18P | 2.29
T18L | 2.42
T18D | 2.38
T18N | 1.7

Variant | protein stability index
T18W | 1.55
T18F | 2.46
T18A | 2.36
T18Q | 2.5
T18H | 2.52
T18V | 1.97
M14T | 2.97
M14K | 3.46
M14A | 2.42
M14R | 2.68
M14S | 3.13
M14G | 3.11
M14E | 3.52
M14D | 3.17
M14I | 2.56
M14V | 2.87
M14P | 3.36
M14L | 2.35
M14N | 2.4
M14F | 2.09
M14Y | 2.58
M14H | 2.89
M14C | 2.02
M14Q | 2.88

Variant | protein stability index
M14W | 2.13
P19E | 3.03
P19C | 2.28
P19Q | 2.18
P19D | 2.9
P19I | 2.12
P19V | 2.22
P19N | 2.48
P19G | 2.75
P19F | 2.17
P19S | 2.14
P19R | 2.39
P19T | 2.46
P19L | 2.48
P19Y | 1.4
P19K | 2.41
P19W | 2.41
P19H | 1.47
P19A | 2.74
P19M | 2.02
E3A | 2.54
E3K | 2.78
E3Q | 2.72
E3C | 2.5

Variant | protein stability index
E3S | 2.14
E3L | 2.11
E3M | 1.9
E3P | 2.19
E3D | 2.2
E3R | 2.83
E3F | 1.95
E3N | 2.42
E3G | 2.56
E3T | 2.67
E3Y | 1.71
E3H | 2.23
E3V | 2.45
E3W | 2.02
E3I | 2.02
E2R | 2.85
E2W | 3.14
E2T | 3.35
E2S | 3.42
E2Y | 2.83
E2V | 2.63
S4H | 2.51
S4R | 2.5
S4K | 2.41

Variant | protein stability index
S4F | 2.15
S4T | 2.34
S4M | 2.21
S4I | 2.16
S4D | 2.56
S4N | 1.93
S4P | 2.79
S4C | 2.71
S4G | 2.69
S4E | 2.72
S4V | 1.82
S4Q | 2.51
S4A | 2.65
S4L | 1.89
S4Y | 2.45
S4W | 1.9
L8K | 2.98
L8A | 3.24
L8N | 3.22
L8C | 2.29
L8W | 2.12
L8V | 2.53
L8M | 2.69
L8D | 3.75

Variant | protein stability index
L8R | 2.98
L8Q | 3.17
L8E | 3
L8F | 2.4
L8T | 3.12
L8S | 3.21
L8I | 2.41
L8P | 3.18
L8G | 2.79
L8H | 3.27
L8Y | 2.67
V12P | 3.45
V12Q | 3.07
V12M | 2.33
V12D | 3.7
V12I | 2.77
V12L | 1.86
V12H | 2.74
V12S | 3.16
V12G | 2.91
V12W | 1.81
V12Y | 2.6
V12T | 3.01
V12K | 2.81

Variant | protein stability index
V12C | 1.98
V12R | 3
V12A | 3.16
V12F | 1.86
V12N | 3.1
V12E | 3.85
R13M | 2.07
R13N | 2.58
R13K | 2.67
R13Y | 2.53
R13P | 2.97
R13T | 1.64
R13W | 2.84
R13C | 3.21
R13E | 2.84
R13D | 2.48
R13Q | 2.31
R13G | 1.76
R13V | 2.66
R13S | 1.52
R13H | 2.38
R13L | 3.6
R13A | 1.49
R13F | 2.06

Variant | protein stability index
L5Q | 2.81
L5D | 3.15
L5S | 2.8
L5C | 2.79
L5K | 2.65
L5N | 2.52
L5P | 2.75
L5M | 2.9
L5E | 3.4
L5G | 2.67
L5H | 2.51
L5I | 1.83
L5A | 3.47
L5R | 2.52
L5F | 2.16
L5T | 2.79
L5V | 2.59
L5Y | 2.61
L5W | 2.21
L9A | 2.97
L9H | 3.29
L9E | 3.23
L9Y | 2.62
L9P | 3.07

Variant | protein stability index
L9T | 3.45
L9I | 2.32
L9C | 3.33
L9K | 2.57
L9G | 3.03
L9F | 2.27
L9V | 2.51
L9D | 3.1
L9N | 3.61
L9S | 3.36
L9Q | 3.77
L9M | 2.44
L9R | 3.14
L9W | 2.49
Q10M | 1.56
Q10A | 2.47
Q10L | 2.27
Q10Y | 2.16
Q10D | 2.06
Q10H | 2.25
Q10P | 2.79
Q10W | 1.17
Q10F | 2.22
Q10T | 2.28

Variant | protein stability index
Q10K | 2.38
Q10S | 2.33
Q10G | 2.45
Q10R | 3.13
Q10N | 2.05
Q10E | 2.41
Q10C | 2.39
Q10I | 4.07
P6S | 2.31
P6L | 2
P6F | 1.93
P6Q | 1.91
P6G | 2.28
P6Y | 2.58
P6E | 2.15
P6R | 2.59
P6T | 2.13
P6K | 1.71
P6V | 1.6
P6A | 2.66
P6W | 2.11
P6C | 2.05
P6H | 2.13
P6M | 2.11

Variant | protein stability index
P6I | 1.95
P6N | 2.45
P6D | 2.51
L17Q | 2.86
L17N | 3.42
L17K | 3.51
L17T | 2.54
L17V | 3.56
L17D | 3.43
L17H | 2.83
L17P | 2.54
L17Y | 2.98
L17M | 2.63
L17R | 3.48
L17E | 3.45
L17I | 2.54
L17G | 2.77
L17F | 2.16
L17C | 2.85
L17A | 3.51
L17W | 2.33
L17S | 2.87
